Blank lines part the entries; values can stand above or below the molecule they belong to. Bridges are numbered along the chain shown (N, C = ends). Where no end group is shown, it is not given here. Side-chain parts run from the residue outwards. [ ]: non-standard residue; d: D form. tBuAla = CC(C)(C)C[C@H](N)C(=O)O; Tle = CC(C)(C)[C@H](N)C(=O)O; linker = not defined here; Nle = CCCC[C@H](N)C(=O)O; siRNA = not defined here
Key:
[1] = Murine hematotoxicity assay; format: in vivo, mouse; details: 3 mg/kg i.v. QW×4, BALB/c mice
Description: (§1) Murine hematotoxicity experiments were conducted at Charles River Laboratories and the care and use of animals was conducted in accordance with the regulations of the Association for Assessment and Accreditation of Laboratory Animal Care (AAALAC). Wild type BALB/c, female, 7-8 weeks, weighing approximately 18-22 g were randomized and dosed intravenously with control or test articles at a QW×4 schedule. Dosing volume was adjusted based on body weight and was administered at 10 mL/Kg. PDCs were dissolved in 25 mM Histidine 10% sucrose pH 7 and 3 mg/kg was administered. Free MMAE payload was also tested, and similarly dissolved in 25 mM Histidine 10% sucrose pH 7 and administered to the mice at a dose of […] by i.v. injection at a QW×4 schedule. 3 days following each dose, 150 μL of whole blood was collected via submandibular method and placed in K2 EDTA tubes stored on ice. Blood neutrophil counts were performed on the day of collection by IDEXX labs. Body weights were recorded twice a week until study endpoint.
as §1, with “As outlined in the material” for “Murine hematotoxicity experiments were conducted at Charles River Laboratories”, “methods” for “the care and use”, “Example 1, wild” for “animals was conducted in accordance with the regulations of the Association for Assessment and Accreditation of Laboratory Animal Care (AAALAC). Wild”, “PDCs were dissolved in 25 mM Histidine 10% sucrose pH 7 and 3 mg/kg was administered.” left out

mouse SORT1 (76-753)-His = molecular target: T1, mouse SORT1 (76-753)-His (mouse, UniProt Q6PHU5 76-753); test: SPR (Biacore 8K), SORT1 on CM5 chip, siRNA-peptide conjugate as analyte, 1:1 model
T1 construct: range 76-753; Amine-coupled to CM5 chip for SPR
T1 sequence (looked up): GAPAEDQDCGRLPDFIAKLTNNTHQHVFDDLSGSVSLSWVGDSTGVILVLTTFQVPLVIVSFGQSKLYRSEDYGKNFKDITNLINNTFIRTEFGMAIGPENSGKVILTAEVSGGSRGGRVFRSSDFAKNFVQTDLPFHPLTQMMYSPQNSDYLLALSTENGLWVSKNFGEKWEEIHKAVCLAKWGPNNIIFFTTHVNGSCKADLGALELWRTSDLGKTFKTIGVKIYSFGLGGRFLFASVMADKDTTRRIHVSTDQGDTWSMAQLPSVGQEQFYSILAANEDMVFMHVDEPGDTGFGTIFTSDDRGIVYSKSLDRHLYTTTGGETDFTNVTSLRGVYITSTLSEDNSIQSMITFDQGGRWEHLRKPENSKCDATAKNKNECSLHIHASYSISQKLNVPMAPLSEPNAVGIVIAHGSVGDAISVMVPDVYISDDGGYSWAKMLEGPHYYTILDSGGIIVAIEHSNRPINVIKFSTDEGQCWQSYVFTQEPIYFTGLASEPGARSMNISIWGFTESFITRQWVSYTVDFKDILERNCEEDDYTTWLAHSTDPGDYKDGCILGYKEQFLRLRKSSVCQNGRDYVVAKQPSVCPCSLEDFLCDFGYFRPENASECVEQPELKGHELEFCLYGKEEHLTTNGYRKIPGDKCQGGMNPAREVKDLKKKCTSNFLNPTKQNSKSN

Molecule: CC[C@H](C)[C@@H]([C@@H](CC(=O)N1CCC[C@H]1[C@H](OC)[C@@H](C)C(=O)N[C@H](C)[C@@H](O)c1ccccc1)OC)N(C)C(=O)[C@@H](NC(=O)[C@H](C(C)C)N(C)C(=O)OCc1ccc(NC(=O)[C@H](CCCNC(N)=O)NC(=O)[C@@H](NC(=O)CCCC(=O)NCCC(=O)N(C)CC(=O)N(C)CC(=O)N(C)CC(=O)N(C)CC(=O)N[C@@H](C)C(=O)N2CCC[C@H]2C(=O)N[C@@H](CCCNC(=N)N)C(=O)N[C@@H](Cc2c[nH]c3ccccc23)C(=O)N[C@@H](CC(=O)O)C(=O)N[C@@H](C)C(=O)N2CCC[C@H]2C(=O)N[C@@H](CC(C)C)C(=O)N[C@@H](CCCNC(=N)N)C(=O)N[C@@H](CC(=O)O)C(=O)N2CCC[C@H]2C(=O)N[C@@H](C)C(=O)N[C@@H](CC(C)C)C(=O)N[C@@H](CCCNC(=N)N)C(=O)N[C@@H](CCC(N)=O)C(=O)N[C@@H](CC(C)C)C(=O)N[C@@H](CC(C)C)C(=O)O)C(C)C)cc1)C(C)C [PRGN_WT_PDC]
blood neutrophil counts compared to vehicle or MMAE treatment [1]: reduced neutrophil counts

Kd (mouse SORT1 (76-753)-His): 0.178 µM
B1: SORT1 peptide 3 conjugate (peptide)
peptide: RWCENK([linker-siRNA])R[Nle]FTCRQ[Tle][tBuAla]
modifications: disulfide 3-11 (inferred); not fully specified; printed as RWCENKR(Nle)FTCRQ(B13)(F02); reading uncertain
notes: also called SORT1 peptide 3 siRNA conjugate

From patent publication US20260183411A1, “TARGETING SORTILIN” (priority 2024, published 2026)
